Assay results as given in the Human Domainome abundance scans (Beltran et al. 2025).
± gives the uncertainty stated by the source.

B1: POU domain, class 2, transcription factor 3, residues 186 to 260; numbered along this chain, Q9UKI9 (parent)
chain: SDLEELEKFAKTFKQRRIKLGFTQGDVGLAMGKLYGNDFSQTTISRFEALNLSFKNMCKLKPLLEKWLNDAESSP

Variants of: B1
Assay: abundance fitness (aPCA) (normalised: wild type 0, dead -1); higher = more abundant; growth selection in yeast, the domain comes from the species named
Details: Homo sapiens

Variant	abundance fitness
SDLEELEKFAKTFKQRRIKLGFTQGDVGLAMGKLYGNDFSQTTISRFEALNLSFKNMCKLKPLREKWLNDAESSP [L64R]	-0.83 ± 0.071
SDLEELEKFAKTFKQRRIKLGFTQGDVGLAMGKLYGNDFSQTTISRFEALNLSFKNMCKLKPLSEKWLNDAESSP [L64S]	-0.743 ± 0.067
SDLEELEKFAKTFKQRRIKLGFTQGDVGLAMGKLYGNDFSQTTISRFEALNLSFKNMCKLKPLTEKWLNDAESSP [L64T]	-0.462 ± 0.084
SDLEELEKFAKTFKQRRIKLGFTQGDVGLAMGKLYGNDFSQTTISRFEALNLSFKNMCKLKPLVEKWLNDAESSP [L64V]	-0.197 ± 0.036
SDLEELEKFAKTFKQRRIKLGFTQGDVGLAMGKLYGNDFSQTTISRFEALNLSFKNMCKLKPLWEKWLNDAESSP [L64W]	-0.981 ± 0.089
SDLEELEKFAKTFKQRRIKLGFTQGDVGLAMGKLYGNDFSQTTISRFEALNLSFKNMCKLKPLYEKWLNDAESSP [L64Y]	-0.221 ± 0.073
SDLEELEKFAKTFKQRRIKLGFTQGDVGLAMGKLYGNDFSQTTISRFEALNLSFKNMCKLKPLLAKWLNDAESSP [E65A]	-0.07 ± 0.033
SDLEELEKFAKTFKQRRIKLGFTQGDVGLAMGKLYGNDFSQTTISRFEALNLSFKNMCKLKPLLCKWLNDAESSP [E65C]	-0.033 ± 0.064
SDLEELEKFAKTFKQRRIKLGFTQGDVGLAMGKLYGNDFSQTTISRFEALNLSFKNMCKLKPLLDKWLNDAESSP [E65D]	-0.031 ± 0.061
SDLEELEKFAKTFKQRRIKLGFTQGDVGLAMGKLYGNDFSQTTISRFEALNLSFKNMCKLKPLLFKWLNDAESSP [E65F]	-0.118 ± 0.059
SDLEELEKFAKTFKQRRIKLGFTQGDVGLAMGKLYGNDFSQTTISRFEALNLSFKNMCKLKPLLHKWLNDAESSP [E65H]	-0.05 ± 0.32
SDLEELEKFAKTFKQRRIKLGFTQGDVGLAMGKLYGNDFSQTTISRFEALNLSFKNMCKLKPLLIKWLNDAESSP [E65I]	0.023 ± 0.13
SDLEELEKFAKTFKQRRIKLGFTQGDVGLAMGKLYGNDFSQTTISRFEALNLSFKNMCKLKPLLKKWLNDAESSP [E65K]	0.042 ± 0.057
SDLEELEKFAKTFKQRRIKLGFTQGDVGLAMGKLYGNDFSQTTISRFEALNLSFKNMCKLKPLLLKWLNDAESSP [E65L]	-0.043 ± 0.033
SDLEELEKFAKTFKQRRIKLGFTQGDVGLAMGKLYGNDFSQTTISRFEALNLSFKNMCKLKPLLMKWLNDAESSP [E65M]	0.043 ± 0.058
SDLEELEKFAKTFKQRRIKLGFTQGDVGLAMGKLYGNDFSQTTISRFEALNLSFKNMCKLKPLLNKWLNDAESSP [E65N]	-0.047 ± 0.25
SDLEELEKFAKTFKQRRIKLGFTQGDVGLAMGKLYGNDFSQTTISRFEALNLSFKNMCKLKPLLPKWLNDAESSP [E65P]	-0.58 ± 0.083
SDLEELEKFAKTFKQRRIKLGFTQGDVGLAMGKLYGNDFSQTTISRFEALNLSFKNMCKLKPLLQKWLNDAESSP [E65Q]	-0.109 ± 0.057
SDLEELEKFAKTFKQRRIKLGFTQGDVGLAMGKLYGNDFSQTTISRFEALNLSFKNMCKLKPLLRKWLNDAESSP [E65R]	-0.197 ± 0.036
SDLEELEKFAKTFKQRRIKLGFTQGDVGLAMGKLYGNDFSQTTISRFEALNLSFKNMCKLKPLLSKWLNDAESSP [E65S]	-0.096 ± 0.037
SDLEELEKFAKTFKQRRIKLGFTQGDVGLAMGKLYGNDFSQTTISRFEALNLSFKNMCKLKPLLTKWLNDAESSP [E65T]	-0.133 ± 0.054
SDLEELEKFAKTFKQRRIKLGFTQGDVGLAMGKLYGNDFSQTTISRFEALNLSFKNMCKLKPLLVKWLNDAESSP [E65V]	-0.095 ± 0.033
SDLEELEKFAKTFKQRRIKLGFTQGDVGLAMGKLYGNDFSQTTISRFEALNLSFKNMCKLKPLLWKWLNDAESSP [E65W]	-0.211 ± 0.041
SDLEELEKFAKTFKQRRIKLGFTQGDVGLAMGKLYGNDFSQTTISRFEALNLSFKNMCKLKPLLYKWLNDAESSP [E65Y]	-0.215 ± 0.074
SDLEELEKFAKTFKQRRIKLGFTQGDVGLAMGKLYGNDFSQTTISRFEALNLSFKNMCKLKPLLEAWLNDAESSP [K66A]	-0.055 ± 0.035

Variant	abundance fitness
SDLEELEKFAKTFKQRRIKLGFTQGDVGLAMGKLYGNDFSQTTISRFEALNLSFKNMCKLKPLLECWLNDAESSP [K66C]	-0.063 ± 0.056
SDLEELEKFAKTFKQRRIKLGFTQGDVGLAMGKLYGNDFSQTTISRFEALNLSFKNMCKLKPLLEDWLNDAESSP [K66D]	0.018 ± 0.051
SDLEELEKFAKTFKQRRIKLGFTQGDVGLAMGKLYGNDFSQTTISRFEALNLSFKNMCKLKPLLEEWLNDAESSP [K66E]	-0.061 ± 0.041
SDLEELEKFAKTFKQRRIKLGFTQGDVGLAMGKLYGNDFSQTTISRFEALNLSFKNMCKLKPLLEFWLNDAESSP [K66F]	-0.248 ± 0.11
SDLEELEKFAKTFKQRRIKLGFTQGDVGLAMGKLYGNDFSQTTISRFEALNLSFKNMCKLKPLLEGWLNDAESSP [K66G]	-0.038 ± 0.03
SDLEELEKFAKTFKQRRIKLGFTQGDVGLAMGKLYGNDFSQTTISRFEALNLSFKNMCKLKPLLEHWLNDAESSP [K66H]	-0.104 ± 0.076
SDLEELEKFAKTFKQRRIKLGFTQGDVGLAMGKLYGNDFSQTTISRFEALNLSFKNMCKLKPLLEIWLNDAESSP [K66I]	-0.142 ± 0.13
SDLEELEKFAKTFKQRRIKLGFTQGDVGLAMGKLYGNDFSQTTISRFEALNLSFKNMCKLKPLLEMWLNDAESSP [K66M]	-0.157 ± 0.059
SDLEELEKFAKTFKQRRIKLGFTQGDVGLAMGKLYGNDFSQTTISRFEALNLSFKNMCKLKPLLENWLNDAESSP [K66N]	-0.019 ± 0.084
SDLEELEKFAKTFKQRRIKLGFTQGDVGLAMGKLYGNDFSQTTISRFEALNLSFKNMCKLKPLLEPWLNDAESSP [K66P]	-0.544 ± 0.08
SDLEELEKFAKTFKQRRIKLGFTQGDVGLAMGKLYGNDFSQTTISRFEALNLSFKNMCKLKPLLEQWLNDAESSP [K66Q]	-0.036 ± 0.057
SDLEELEKFAKTFKQRRIKLGFTQGDVGLAMGKLYGNDFSQTTISRFEALNLSFKNMCKLKPLLERWLNDAESSP [K66R]	-0.024 ± 0.032
SDLEELEKFAKTFKQRRIKLGFTQGDVGLAMGKLYGNDFSQTTISRFEALNLSFKNMCKLKPLLESWLNDAESSP [K66S]	-0.147 ± 0.041
SDLEELEKFAKTFKQRRIKLGFTQGDVGLAMGKLYGNDFSQTTISRFEALNLSFKNMCKLKPLLETWLNDAESSP [K66T]	-0.007 ± 0.045
SDLEELEKFAKTFKQRRIKLGFTQGDVGLAMGKLYGNDFSQTTISRFEALNLSFKNMCKLKPLLEVWLNDAESSP [K66V]	-0.066 ± 0.035
SDLEELEKFAKTFKQRRIKLGFTQGDVGLAMGKLYGNDFSQTTISRFEALNLSFKNMCKLKPLLEWWLNDAESSP [K66W]	-0.161 ± 0.043
SDLEELEKFAKTFKQRRIKLGFTQGDVGLAMGKLYGNDFSQTTISRFEALNLSFKNMCKLKPLLEYWLNDAESSP [K66Y]	-0.132 ± 0.1
SDLEELEKFAKTFKQRRIKLGFTQGDVGLAMGKLYGNDFSQTTISRFEALNLSFKNMCKLKPLLEKALNDAESSP [W67A]	-0.603 ± 0.058
SDLEELEKFAKTFKQRRIKLGFTQGDVGLAMGKLYGNDFSQTTISRFEALNLSFKNMCKLKPLLEKCLNDAESSP [W67C]	-0.282 ± 0.053
SDLEELEKFAKTFKQRRIKLGFTQGDVGLAMGKLYGNDFSQTTISRFEALNLSFKNMCKLKPLLEKDLNDAESSP [W67D]	-0.706 ± 0.16
SDLEELEKFAKTFKQRRIKLGFTQGDVGLAMGKLYGNDFSQTTISRFEALNLSFKNMCKLKPLLEKELNDAESSP [W67E]	-0.696 ± 0.073
SDLEELEKFAKTFKQRRIKLGFTQGDVGLAMGKLYGNDFSQTTISRFEALNLSFKNMCKLKPLLEKFLNDAESSP [W67F]	-0.004 ± 0.056
SDLEELEKFAKTFKQRRIKLGFTQGDVGLAMGKLYGNDFSQTTISRFEALNLSFKNMCKLKPLLEKGLNDAESSP [W67G]	-0.804 ± 0.045
SDLEELEKFAKTFKQRRIKLGFTQGDVGLAMGKLYGNDFSQTTISRFEALNLSFKNMCKLKPLLEKHLNDAESSP [W67H]	-0.44 ± 0.15
SDLEELEKFAKTFKQRRIKLGFTQGDVGLAMGKLYGNDFSQTTISRFEALNLSFKNMCKLKPLLEKILNDAESSP [W67I]	-0.419 ± 0.14

Variant	abundance fitness
SDLEELEKFAKTFKQRRIKLGFTQGDVGLAMGKLYGNDFSQTTISRFEALNLSFKNMCKLKPLLEKLLNDAESSP [W67L]	-0.246 ± 0.037
SDLEELEKFAKTFKQRRIKLGFTQGDVGLAMGKLYGNDFSQTTISRFEALNLSFKNMCKLKPLLEKMLNDAESSP [W67M]	-0.306 ± 0.056
SDLEELEKFAKTFKQRRIKLGFTQGDVGLAMGKLYGNDFSQTTISRFEALNLSFKNMCKLKPLLEKNLNDAESSP [W67N]	-0.909 ± 0.24
SDLEELEKFAKTFKQRRIKLGFTQGDVGLAMGKLYGNDFSQTTISRFEALNLSFKNMCKLKPLLEKQLNDAESSP [W67Q]	-0.761 ± 0.1
SDLEELEKFAKTFKQRRIKLGFTQGDVGLAMGKLYGNDFSQTTISRFEALNLSFKNMCKLKPLLEKRLNDAESSP [W67R]	-0.731 ± 0.054
SDLEELEKFAKTFKQRRIKLGFTQGDVGLAMGKLYGNDFSQTTISRFEALNLSFKNMCKLKPLLEKSLNDAESSP [W67S]	-0.741 ± 0.066
SDLEELEKFAKTFKQRRIKLGFTQGDVGLAMGKLYGNDFSQTTISRFEALNLSFKNMCKLKPLLEKTLNDAESSP [W67T]	-0.612 ± 0.085
SDLEELEKFAKTFKQRRIKLGFTQGDVGLAMGKLYGNDFSQTTISRFEALNLSFKNMCKLKPLLEKYLNDAESSP [W67Y]	0.005 ± 0.064
SDLEELEKFAKTFKQRRIKLGFTQGDVGLAMGKLYGNDFSQTTISRFEALNLSFKNMCKLKPLLEKWANDAESSP [L68A]	-0.114 ± 0.043
SDLEELEKFAKTFKQRRIKLGFTQGDVGLAMGKLYGNDFSQTTISRFEALNLSFKNMCKLKPLLEKWCNDAESSP [L68C]	-0.153 ± 0.052
SDLEELEKFAKTFKQRRIKLGFTQGDVGLAMGKLYGNDFSQTTISRFEALNLSFKNMCKLKPLLEKWDNDAESSP [L68D]	-0.733 ± 0.14
SDLEELEKFAKTFKQRRIKLGFTQGDVGLAMGKLYGNDFSQTTISRFEALNLSFKNMCKLKPLLEKWENDAESSP [L68E]	-0.564 ± 0.07
SDLEELEKFAKTFKQRRIKLGFTQGDVGLAMGKLYGNDFSQTTISRFEALNLSFKNMCKLKPLLEKWFNDAESSP [L68F]	-0.312 ± 0.12
SDLEELEKFAKTFKQRRIKLGFTQGDVGLAMGKLYGNDFSQTTISRFEALNLSFKNMCKLKPLLEKWGNDAESSP [L68G]	-0.563 ± 0.041
SDLEELEKFAKTFKQRRIKLGFTQGDVGLAMGKLYGNDFSQTTISRFEALNLSFKNMCKLKPLLEKWHNDAESSP [L68H]	-0.358 ± 0.19
SDLEELEKFAKTFKQRRIKLGFTQGDVGLAMGKLYGNDFSQTTISRFEALNLSFKNMCKLKPLLEKWINDAESSP [L68I]	0.006 ± 0.093
SDLEELEKFAKTFKQRRIKLGFTQGDVGLAMGKLYGNDFSQTTISRFEALNLSFKNMCKLKPLLEKWKNDAESSP [L68K]	-0.809 ± 0.12
SDLEELEKFAKTFKQRRIKLGFTQGDVGLAMGKLYGNDFSQTTISRFEALNLSFKNMCKLKPLLEKWMNDAESSP [L68M]	-0.109 ± 0.081
SDLEELEKFAKTFKQRRIKLGFTQGDVGLAMGKLYGNDFSQTTISRFEALNLSFKNMCKLKPLLEKWNNDAESSP [L68N]	-0.673 ± 0.13
SDLEELEKFAKTFKQRRIKLGFTQGDVGLAMGKLYGNDFSQTTISRFEALNLSFKNMCKLKPLLEKWPNDAESSP [L68P]	-0.749 ± 0.22
SDLEELEKFAKTFKQRRIKLGFTQGDVGLAMGKLYGNDFSQTTISRFEALNLSFKNMCKLKPLLEKWQNDAESSP [L68Q]	-0.311 ± 0.054
SDLEELEKFAKTFKQRRIKLGFTQGDVGLAMGKLYGNDFSQTTISRFEALNLSFKNMCKLKPLLEKWRNDAESSP [L68R]	-0.626 ± 0.046
SDLEELEKFAKTFKQRRIKLGFTQGDVGLAMGKLYGNDFSQTTISRFEALNLSFKNMCKLKPLLEKWSNDAESSP [L68S]	-0.285 ± 0.046
